In paper doi:10.1101/2022.05.23.492800 (2022):

Experiments:
Assay in all cases: multimer staining
[1] = biological target: T1, SARS-CoV-2 Spike protein peptide on HLA-A*24:02 (human)
T1 peptide: QYIKWPWYIW

[2] = biological target: T2, SARS-CoV-2 Spike protein peptide on HLA-A*23:01 (human)
T2 peptide: QYIKWPWYIW

[3] = biological target: T3, SARS-CoV-1 Spike protein peptide on HLA-A*24:02 (human)
T3 peptide: QYIKWPWYVW

Measured: binding result

B1: TCRQYI (TCR)
alpha TRAV20*01 TRAJ32*01 CDR3: CAALNYGGATNKLIF
beta TRBV4-3*01 TRBJ2-7*01 CDR3: CASSPSGGAYEQYF
recognises: [1] | [2] | [3]
